Measured values: paper PMC6797079

B1: sodium/iodide symporter (NIS), wild type, cerulean- or citrine-tagged [human] / itself (parent)
chain: MEAVETGERPTFGAWDYGVFALMLLVSTGIGLWVGLARGGQRSAEDFFTGGRRLAALPVGLSLSASFMSAVQVLGVPSEAYRYGLKFLWMCLGQLLNSVLTALLFMPVFYRLGLTSTYEYLEMRFSRAVRLCGTLQYIVATMLYTGIVIYAPALILNQVTGLDIWASLLSTGIICTFYTAVGGMKAVVWTDVFQVVVMLSGFWVVLARGVMLVGGPRQVLTLAQNHSRINLMDFNPDPRSRYTFWTFVVGGTLVWLSMYGVNQAQVQRYVACRTEKQAKLALLINQVGLFLIVSSAACCGIVMFVFYTDCDPLLLGRISAPDQYMPLLVLDIFEDLPGVPGLFLACAYSGTLSTASTSINAMAAVTVEDLIKPRLRSLAPRKLVIISKGLSLIYGSACLTVAALSSLLGGGVLQGSFTVMGVISGPLLGAFILGMFLPACNTPGVLAGLGAGLALSLWVALGATLYPPSEQTMRVLPSSAARCVALSVNASGLLDPALLPANDSSRAPSSGMDASRPALADSFYAISYLYYGALGTLTTVLCGALISCLTGPTKRSTLAPGLLWWDLARQTASVAPKEEVAILDDNLVKGPEELPTGNKKPPGFLPTNEDRLFFLGQKELEGAGSWTPCVGHDGGRDQQETNL

Variants of: B1
Experiment: FRET
Conditions: with itself, n = 2, minimum of 20 cells analyzed in each n, read off a plot

Variant: chain 1 D237A
- response (arbitrary units) (HeLa cells, parent: 20): 0
- response (arbitrary units) (SW1736 cells, parent: 0): -70

Variant: chain 1 A525F
- response (arbitrary units) (HeLa cells, parent: 20): 120
- response (arbitrary units) (SW1736 cells, parent: 0): 30
